Laboratory results as given in patent US10400249B2, “HPPD variants and methods of use” (priority 2014, dated 2019).

Tests used:
[1] = tested on: Pseudomonas fluorescens HPPD protein; experiment: OD assay: HPPD activity and pI50 from HPP remaining after derivatisation with DNP; type: biochemical; conditions: for Activity DeltaE/24 min μg Protein: HPPD enzyme activity of the clone; for tolerance (pI50) Cmpd. 2: inhibitor Cmpd. 2; for tolerance (pI50) DKN: inhibitor diketonitrile (DKN), negative log of molar concentration; for tolerance (pI50) MST: inhibitor mesotrione (MST); for tolerance (pI50) TBT: inhibitor tembotrione (TBT)
Summary of the method: (§1)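 pI50 values for Pseudomonas fluorescens HPPD come from two room-temperature formats. The coupled HGD assay continuously follows maleylacetoacetate at 318 nm (pH 7.6 Tris, 600 μM HPP, FeSO4, ascorbate, catalase, inhibitor up to 100 μM) and classifies inhibition type from time-dependence. The endpoint OD assay measures unconsumed 0.5 mM HPP after 24 min via DNP hydrazone at 405 nm (pH 7.8), testing 5.0×10^−6–5.0×10^−4 M inhibitor.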

[2] = tested on: Pseudomonas fluorescens HPPD protein; experiment: HGD assay: HPPD activity coupled to HGA dioxygenase, pI50 and type of inhibition (time-course); type: biochemical; conditions: for tolerance (pI50) Cmpd. 1: inhibitor Cmpd. 1; for tolerance (pI50) Cmpd. 1 / tolerance (pI50) Cmpd. 2 / tolerance (pI50) Cmpd. 3 / tolerance (pI50) Cmpd. 4 / tolerance (pI50) Cmpd. 5 / tolerance (pI50) DKN / tolerance (pI50) MST / tolerance (pI50) TBT: HGD assay; for tolerance (pI50) Cmpd. 2: inhibitor Cmpd. 2; for tolerance (pI50) Cmpd. 3: inhibitor Cmpd. 3; for tolerance (pI50) Cmpd. 4: inhibitor Cmpd. 4; for tolerance (pI50) Cmpd. 5: inhibitor Cmpd. 5; for tolerance (pI50) DKN: inhibitor diketonitrile (DKN); for tolerance (pI50) MST: inhibitor mesotrione (MST); for tolerance (pI50) TBT: inhibitor tembotrione (TBT)
Summary of the method: as §1

T0 soybean plants = experiment: greenhouse spray test of T0 soybean plants for tolerance to mesotrione; type: in vivo; conditions: mesotrione 3X field rate, 316 grams AI per hectare, seven days after treatment
Protocol: T0 soybean plants expressing an HPPD inhibitor tolerant enzyme of the present invention, along with a gene conferring tolerance to glyphosate and a gene conferring tolerance to glufosinate or having a “plant expression cassette”, which includes only an HPPD inhibitor tolerant enzyme of the present invention, were tested for tolerance to mesotrione. Prior greenhouse trials with the transgenic plants, soy transformants were routinely analyzed for the expression and presence of the transgenes using the ELISA protein detection method (see detailed description under item D and H). Only plants recovering in the selection media and having a detectable HPPD transgene protein expression were used for the herbicide tolerance analysis. A DeVries Tracker Sprayer was calibrated prior to each spraying. The chemical formulation used for mesotrione (MST) testing was Callisto® 4 SC formulation supplemented with ammonium sulfate and methylated rape seed oil (Actirob). Spray tests were conducted using 3× the field rate (equivalent to 9 fluid ounce per acre of the same herbicide formulation that containing 40% the active ingredient (AI), mesotrione), which equals 316 grams AI per hectare. Tolerance was evaluated one week after spraying. […] A tolerance rating of “0” was assigned to plants that their shoot apexes, newly emerged trifoliates and some axillary buds were completely bleached. A rating of “1” was assigned to plants having slight tolerance, i.e., the newest plant shoot tissues had some green leaves and are not bleached completely. A rating of “2” was assigned to plants showing moderate tolerance, i.e., more than 50% of the leaf area of the top three trifoliates showing no chlorosis or bleaching damage. A rating of “3” was assigned to plants showing nearly perfect tolerance, i.e., less than 10% of the leaf area showing chlorosis or very slight bleaching.

[3] = HT-single plant expression cassette
[4] = HT-triple plant expression cassette

| Molecule | Activity DeltaE/24 min μg Protein [1] [DeltaE/24 min μg Protein] | tolerance (pI50) Cmpd. 2 [1] | tolerance (pI50) DKN [1] | tolerance (pI50) MST [1] | tolerance (pI50) TBT [1] | mechanism of inhibition by diketonitrile (DKN), time-course of inhibition [2] | mechanism of inhibition by mesotrione (MST), time-course of inhibition [2] | mechanism of inhibition by tembotrione (TBT), time-course of inhibition [2] | tolerance (pI50) Cmpd. 1 [2] | tolerance (pI50) Cmpd. 2 [2] | tolerance (pI50) Cmpd. 3 [2] | tolerance (pI50) Cmpd. 4 [2] | tolerance (pI50) Cmpd. 5 [2] | tolerance (pI50) DKN [2] | tolerance (pI50) MST [2] | tolerance (pI50) TBT [2] | Number of T0 soybean plants with herbicide tolerance rating 0 (completely bleached) (T0 soybean plants; [3]) | Number of T0 soybean plants with herbicide tolerance rating 1 (slight tolerance) (T0 soybean plants; [3]) | Number of T0 soybean plants with herbicide tolerance rating 2 (moderate tolerance) (T0 soybean plants; [3]) | Number of T0 soybean plants with herbicide tolerance rating 3 (nearly perfect tolerance) (T0 soybean plants; [3]) | other results |
| --- | --- | --- | --- | --- | --- | --- | --- | --- | --- | --- | --- | --- | --- | --- | --- | --- | --- | --- | --- | --- | --- |
| FLP136: PfHPPD variant P215L, E335P, G336F (protein, HPPD variant - FLP136, PfHPPD variant P215L, E335P, G336F) MADLYENPMGLMGFEFIEFASPTPGTLEPIFEIMGFTKVATHRSKNVHLYRQGEINLILNNEPNSIASYFAAEHGPSVCGMAFRVKDSQKAYNRALELGAQPIHIDTGPMELNLPAIKGIGGAPLYLIDRFGEGSSIYDIDFVYLEGVERNPVGAGLKVIDHLTHNVYRGRMVYWANFYEKLFNFREARYFDIKGEYTGLTSKAMSAPDGMIRILLNEESSKGAGQIEEFLMQFNGEGIQHVAFLTDDLVKTWDALKKIGMRFMTAPPDTYYEMLEGRLPDHGEPVDQLQARGILLDGSSVEGDKRLLLQIFSETLMGPVFFEFIQRKGDDGFGPFNFKALFESIERDQVRRGVLTAD | 0.09 | 4.8 | 2.6 | 3.3 | 4.7 | fully reversible inhibitors | fully reversible inhibitors | fully reversible inhibitors | 5.6 | 5.9 | 5.6 | 6.0 | 5.6 | 4.0 | 4.5 | 5.3 | 4 | 10 | 41 | 20 | Number of T0 soybean plants with herbicide tolerance rating 0 (completely bleached) (T0 soybean plants; [4]): 4; Number of T0 soybean plants with herbicide tolerance rating 1 (slight tolerance) (T0 soybean plants; [4]): 17; Number of T0 soybean plants with herbicide tolerance rating 2 (moderate tolerance) (T0 soybean plants; [4]): 33; Number of T0 soybean plants with herbicide tolerance rating 3 (nearly perfect tolerance) (T0 soybean plants; [4]): 19 |
| FLP202: PfHPPD variant P215L, E335P, G336F, A340E (protein, HPPD variant - FLP202, PfHPPD variant P215L, E335P, G336F, A340E) MADLYENPMGLMGFEFIEFASPTPGTLEPIFEIMGFTKVATHRSKNVHLYRQGEINLILNNEPNSIASYFAAEHGPSVCGMAFRVKDSQKAYNRALELGAQPIHIDTGPMELNLPAIKGIGGAPLYLIDRFGEGSSIYDIDFVYLEGVERNPVGAGLKVIDHLTHNVYRGRMVYWANFYEKLFNFREARYFDIKGEYTGLTSKAMSAPDGMIRILLNEESSKGAGQIEEFLMQFNGEGIQHVAFLTDDLVKTWDALKKIGMRFMTAPPDTYYEMLEGRLPDHGEPVDQLQARGILLDGSSVEGDKRLLLQIFSETLMGPVFFEFIQRKGDDGFGPFNFKELFESIERDQVRRGVLTAD | 0.09 | 4.5 | <2.5 | <2.5 | 3.6 | fully reversible inhibitors | fully reversible inhibitors | fully reversible inhibitors | 4.1 | 4.7 | 4.3 | 5.7 | 4.3 | <4 | <4 | 4.2 | 2 | 21 | 37 | 18 | Number of T0 soybean plants with herbicide tolerance rating 0 (completely bleached) (T0 soybean plants; [4]): 7; Number of T0 soybean plants with herbicide tolerance rating 1 (slight tolerance) (T0 soybean plants; [4]): 8; Number of T0 soybean plants with herbicide tolerance rating 2 (moderate tolerance) (T0 soybean plants; [4]): 10; Number of T0 soybean plants with herbicide tolerance rating 3 (nearly perfect tolerance) (T0 soybean plants; [4]): 14 |
